Target: BSA (UniProt P02769 25-607)
Experiment: ELISA screen of hybridoma supernatants

BSA, sequence (P02769 25-607 limits assumed): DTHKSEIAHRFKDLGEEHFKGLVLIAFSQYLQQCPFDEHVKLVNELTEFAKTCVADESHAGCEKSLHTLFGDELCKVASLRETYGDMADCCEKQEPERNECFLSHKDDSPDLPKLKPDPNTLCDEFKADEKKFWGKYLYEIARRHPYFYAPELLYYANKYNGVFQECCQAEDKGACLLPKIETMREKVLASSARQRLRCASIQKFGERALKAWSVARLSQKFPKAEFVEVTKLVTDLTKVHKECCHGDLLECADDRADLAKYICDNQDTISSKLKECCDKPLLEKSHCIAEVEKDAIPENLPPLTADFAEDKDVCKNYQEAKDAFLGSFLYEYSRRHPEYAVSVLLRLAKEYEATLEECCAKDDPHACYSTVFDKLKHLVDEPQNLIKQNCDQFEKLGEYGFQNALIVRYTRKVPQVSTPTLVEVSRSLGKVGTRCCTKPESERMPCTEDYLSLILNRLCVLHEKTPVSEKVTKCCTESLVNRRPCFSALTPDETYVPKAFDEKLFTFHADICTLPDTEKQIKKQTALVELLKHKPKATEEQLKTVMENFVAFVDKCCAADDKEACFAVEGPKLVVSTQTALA

Binder | binding result
Mab 1A2 (antibody, V domains shown) VH: not shown VL: DIELTQSPDFQSVTPKEKVTITCRASQSIGSSLHWYQQKPDQSPKLLIKYASQSFSGVPSRFSGSGSGTDFTLTINSLEAEDAATYYCHQSSSLPRTFGQGTKVEIKR | no binding
Mab 1F10/7C5 (antibody, V domains shown, also called Mab 7C5) VH: not shown VL: DIELTQSPLSLPVTLGQPASISCRSSQSLVYSDGNTYLNWFQQRPGQSPRRLIYKVSNWDSGVPDRFSGSGSGTDFTLKISRVEAEDVGVYYCMQGTHWPRTFGQGTKVEIKR | no binding

Source: patent US20050014931A1 (ABGENIX, published 2005)
